Measured values taken from US20050176123A1 (MORINAGA MILK INDUSTRY, published 2005).

Tests used:
Experiment in all cases: cell-based or functional assay
papain [1] = biological target: T1, papain (UniProt P00784 134-345)
T1 sequence (looked up): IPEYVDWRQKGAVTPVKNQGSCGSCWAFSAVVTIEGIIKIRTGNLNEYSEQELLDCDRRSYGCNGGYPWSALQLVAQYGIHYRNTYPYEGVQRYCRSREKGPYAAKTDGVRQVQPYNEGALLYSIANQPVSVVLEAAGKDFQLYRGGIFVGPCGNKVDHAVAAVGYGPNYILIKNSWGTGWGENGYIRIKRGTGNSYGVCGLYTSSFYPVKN

cathepsin L [2] = biological target: cathepsin L
cathepsin B [3] = biological target: cathepsin B
papain [4] = biological target: T1, papain; remark: listed apart in the source
cathepsin L [5] = biological target: cathepsin L; remark: listed apart in the source
cathepsin B [6] = biological target: cathepsin B; remark: listed apart in the source
cathepsin S = biological target: cathepsin S

B1: bovine transferrin (manufactured by Nihon Pharmaceutical Co., Ltd.) (other)
chain: DPERTVRWCTISTHEANKCASFRENVLRILESGPFVSCVKKTSHMDCIKAISNNEADAVTLDGGLVYEAGLKPNNLKPVVAEFHGTKDNPQTHYYAVAVVKKDTDFKLNELRGKKSCHTGLGRSAGWNIPMAKLYKELPDPQESIQRAAANFFSASCVPCADQSSFPKLCQLCAGKGTDKCACSNHEPYFGYSGAFKCLMEGAGDVAFVKHSTVFDNLPNPEDRKNYELLCGDNTRKSVDDYQECYLAMVPSHAVVARTVGGKEDVIWELLNHAQEHFGKDKPDNFQLFQSPHGKDLLFKDSADGFLKIPSKMDFELYLGYEYVTALQNLRESKPPDSSKDECMVKWCAIGHQERTKCDRWSGFSGGAIECETAENTEECIAKIMKGEADAMSLDGGYLYIAGKCGLVPVLAENYKTEGESCKNTPEKGYLAVAVVKTSDANINWNNLKDKKSCHTAVDRTAGWNIPMGLLYSKINNCKFDEFFSAGCAPGSPRNSSLCALCIGSEKGTGKECVPNSNERYYGYTGAFRCLVEKGDVAFVKDQTVIQNTDGNNNEAWAKNLKKENFEVLCKDGTRKPVTDAENCHLARGPNHAVVSRKDKATCVEKILNKQQDDFGKSVTDCTSNFCLFQSNSKDLLFRDDTKCLASIAKKTYDSYLGDDYVRAMTNLRQCSTSKLLEACTFHKP
For B1, the “inhibition of cysteine protease activity at 10^-4 M inhibitor” value (from here on “inhibition of cysteine protease activity”) (papain [1]) was 40%, the “inhibition of cysteine protease activity” value (cathepsin L [2]) was > 30% and the “inhibition of cysteine protease activity” value (cathepsin B [3]) was > 30%.

B2: bovine lactoferrin (manufactured by Morinaga Milk Industry Co., Ltd.) (other)
chain: APRKNVRWCTISQPEWFKCRRWQWRMKKLGAPSITCVRRAFALECIRAIAEKKADAVTLDGGMVFEAGRDPYKLRPVAAEIYGTKESPQTHYYAVAVVKKGSNFQLDQLQGRKSCHTGLGRSAGWIIPMGILRPYLSWTESLEPLQGAVAKFFSASCVPCIDRQAYPNLCQLCKGEGENQCACSSREPYFGYSGAFKCLQDGAGDVAFVKETTVFENLPEKADRDQYELLCLNNSRAPVDAFKECHLAQVPSHAVVARSVDGKEDLIWKLLSKAQEKFGKNKSRSFQLFGSPPGQRDLLFKDSALGFLRIPSKVDSALYLGSRYLTTLKNLRETAEEVKARYTRVVWCAVGPEEQKKCQQWSQQSGQNVTCATASTTDDCIVLVLKGEADALNLDGGYIYTAGKCGLVPVLAENRKSSKHSSLDCVLRPTEGYLAVAVVKKANEGLTWNSLKDKKSCHTAVDRTAGWNIPMGLIVNQTGSCAFDEFFSQSCAPGADPKSRLCALCAGDDQGLDKCVPNSKEKYYGYTGAFRCLAEDVGDVAFVKNDTVWENTNGESTADWAKNLNREDFRLLCLDGTRKPVTEAQSCHLAVAPNHAVVSRSDRAAHVKQVLLHQQALFGKNGKNCPDKFCLFKSETKNLLFNDNTECLAKLGGRPTYEEYLGTEYVTAIANLKKCSTSPLLEACAFLTR
For B2, the “inhibition rate (%) at 10^-4M inhibitor” value (papain [4]) was 100%, the “inhibition rate (%) at 10^-5M inhibitor” value (papain [4]) was 100% and the “inhibition rate (%) at 10^-6M inhibitor” value (papain [4]) was 100%. The “inhibition rate (%) at 10^-7M inhibitor” value (papain [4]) was 40%, the “inhibition rate (%) at 10^-8M inhibitor” value (papain [4]) was 0% and the “inhibition rate (%) at 10^-4M inhibitor” value (cathepsin L [5]) was 100%. For the same binder, the “inhibition rate (%) at 10^-5M inhibitor” value (cathepsin L [5]) was 100%, the “inhibition rate (%) at 10^-6M inhibitor” value (cathepsin L [5]) was 100% and the “inhibition rate (%) at 10^-7M inhibitor” value (cathepsin L [5]) was 20%. The “inhibition rate (%) at 10^-8M inhibitor” value (cathepsin L [5]) was 0%, the “inhibition rate (%) at 10^-4M inhibitor” value (cathepsin B [6]) was 100% and the “inhibition rate (%) at 10^-5M inhibitor” value (cathepsin B [6]) was 70%. The “inhibition rate (%) at 10^-6M inhibitor” value (cathepsin B [6]) was 10%, the “inhibition rate (%) at 10^-7M inhibitor” value (cathepsin B [6]) was 0% and the “inhibition rate (%) at 10^-8M inhibitor” value (cathepsin B [6]) was 0%. For the same binder, the “inhibition rate (%) at 10^-4M inhibitor” value (cathepsin S) was 100%, the “inhibition rate (%) at 10^-5M inhibitor” value (cathepsin S) was 80% and the “inhibition rate (%) at 10^-6M inhibitor” value (cathepsin S) was 15%. The “inhibition rate (%) at 10^-7M inhibitor” value (cathepsin S) was 0% and the “inhibition rate (%) at 10^-8M inhibitor” value (cathepsin S) was 0%.

B3: human lactoferrin peptide Y679-K695 (peptide)
peptide: YEKYLGPQYVAGITNLK
B3 was tested, and the “inhibition of cysteine protease activity” value (papain [1]) was > 50% and the “inhibition of cysteine protease activity” value (cathepsin L [2]) was > 50%.
